In patent US20250076311A1 (Chugai, published 2025):
Each block holds one binder with its values, some of them ahead of it.

Assays:
[1] = target: T1, human FcγRIIaH extracellular domain with C-terminal His-tag (human, UniProt P12318 34-217); experiment: SPR (BIACORE), antibody captured, FcgR analyte
T1 construct: also called human FcgRIIaH; FcγRIIa type H; not shown: His-tag added to the C-terminus
T1 sequence: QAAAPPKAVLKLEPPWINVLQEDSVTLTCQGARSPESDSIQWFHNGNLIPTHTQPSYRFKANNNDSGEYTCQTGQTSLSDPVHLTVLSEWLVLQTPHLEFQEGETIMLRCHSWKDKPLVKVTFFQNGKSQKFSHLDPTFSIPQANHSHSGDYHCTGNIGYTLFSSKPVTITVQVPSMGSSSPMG

[2] = target: T2, cynomolgus monkey FcγRIIIaS extracellular domain with C-terminal His-tag (cynomolgus monkey, UniProt A3RFZ7 21-206 (rhesus entry)); experiment: SPR (BIACORE), antibody captured, FcgR analyte
T2 construct: also called cyno FcgRIIIaS; cynoFcγRIIIaS; not shown: His-tag added to the C-terminus

[3] = target: T3, human FcγRIIIaV extracellular domain with C-terminal His-tag (human, UniProt P08637 17-208); experiment: SPR (BIACORE), antibody captured, FcgR analyte
T3 construct: also called human FcgRIIIaV; not shown: His-tag added to the C-terminus

[4] = target: T2, cynomolgus monkey FcγRIIIaS …; experiment: SPR (BIACORE); KD of SG1 / KD of variant
Procedure: (§1) The kinetic analysis of interactions between these antibodies and FcγR was carried out using BIACORE® T200 or BIACORE® 4000 (GE Healthcare). HBS-EP+ (GE Healthcare) was used as the running buffer, and the measurement temperature was set to 25° C. […] After the measurement, the antibody captured on the chip was washed off by allowing reaction with 10 mM glycine-HCl, pH1.5 and 25 mM NaOH so that the chip was regenerated and used repeatedly. The sensorgrams obtained as measurement results were analyzed by the 1:1 Langmuir binding model using the BIACORE® Evaluation Software to calculate the binding rate constant ka (L/mol/s) and dissociation rate constant kd (1/s), and the dissociation constant KD (mol/L) was calculated from these values. […] Regarding such interactions, KD values were calculated using the following 1:1 binding model described in BIACORE® T100 Software Handbook BR1006-48 Edition AE.

[5] = target: T4, cynomolgus monkey FcγRIIIaS extracellular domain, His-tagged (cynomolgus monkey, UniProt Q8SPW2 21-206 at identity 1.00)); experiment: SPR (BIACORE), antibody captured, FcγR analyte, 25 C; KD of SG1 divided by KD of variant
T4 construct: also called cyno FcγRIIIaS; cynoFcgRIIIaS
T4 chain: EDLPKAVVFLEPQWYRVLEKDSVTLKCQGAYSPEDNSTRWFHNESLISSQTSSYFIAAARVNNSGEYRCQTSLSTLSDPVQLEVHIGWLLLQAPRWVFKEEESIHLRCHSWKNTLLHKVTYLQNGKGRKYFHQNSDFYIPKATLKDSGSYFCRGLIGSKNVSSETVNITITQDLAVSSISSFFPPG
Procedure: as §1

[6] = target: T5, human FcγRIIb extracellular domain with C-terminal His-tag (human, UniProt P31994 43-217); experiment: SPR Biacore, antibody captured, FcgR analyte
T5 construct: also called human FcgRIIb; not shown: His-tag added to C-terminus
T5 sequence: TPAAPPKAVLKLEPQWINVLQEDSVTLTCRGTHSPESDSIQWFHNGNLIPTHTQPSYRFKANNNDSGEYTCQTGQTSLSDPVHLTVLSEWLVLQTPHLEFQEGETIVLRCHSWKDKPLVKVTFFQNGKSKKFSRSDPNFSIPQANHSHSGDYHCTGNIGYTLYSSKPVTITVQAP

[7] = target: T6, cynomolgus monkey FcγRIIa2 extracellular domain with C-terminal His-tag (cynomolgus monkey); experiment: SPR Biacore, antibody captured, FcgR analyte
T6 construct: also called cyno FcgRIIa2; cynoFcγRIIa2; not shown: His-tag added to C-terminus
T6 chain: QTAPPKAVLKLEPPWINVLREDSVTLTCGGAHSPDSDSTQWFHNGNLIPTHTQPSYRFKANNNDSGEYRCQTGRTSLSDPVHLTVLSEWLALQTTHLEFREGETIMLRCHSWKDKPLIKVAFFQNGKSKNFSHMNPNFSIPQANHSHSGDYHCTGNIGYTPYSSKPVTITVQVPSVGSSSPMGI

[8] = target: T7, cynomolgus monkey FcγRIIIaS extracellular domain with C-terminal His-tag (cynomolgus monkey, UniProt A3RFZ7 21-206 (rhesus entry)); experiment: SPR Biacore, antibody captured, FcgR analyte
T7 construct: also called cyno FcgRIIIaS; cynoFcγRIIIaS; not shown: His-tag added to C-terminus

[9] = target: T8, cynomolgus monkey FcγRIIb extracellular domain with C-terminal His-tag (cynomolgus monkey); experiment: SPR Biacore, antibody captured, FcgR analyte
T8 construct: also called cyno FcgRIIb; cynoFcγRIIb; not shown: His-tag added to C-terminus
T8 chain: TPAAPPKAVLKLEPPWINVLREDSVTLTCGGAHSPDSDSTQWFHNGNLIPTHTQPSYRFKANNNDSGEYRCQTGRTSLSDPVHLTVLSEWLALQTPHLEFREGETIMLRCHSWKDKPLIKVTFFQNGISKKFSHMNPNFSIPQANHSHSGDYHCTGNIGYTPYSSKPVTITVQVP

[10] = target: T9, cynomolgus monkey FcγRIIa3 extracellular domain with C-terminal His-tag (cynomolgus monkey); experiment: SPR Biacore, antibody captured, FcgR analyte
T9 construct: also called cyno FcgRIIa3; cynoFcγRIIa3; not shown: His-tag added to C-terminus
T9 chain: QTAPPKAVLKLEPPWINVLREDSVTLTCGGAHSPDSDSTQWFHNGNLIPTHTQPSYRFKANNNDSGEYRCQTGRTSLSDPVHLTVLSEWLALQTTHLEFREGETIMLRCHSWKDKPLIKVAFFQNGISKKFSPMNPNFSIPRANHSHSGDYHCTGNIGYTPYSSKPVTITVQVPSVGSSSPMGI

T3 sequence (P08637 17-208 F176V): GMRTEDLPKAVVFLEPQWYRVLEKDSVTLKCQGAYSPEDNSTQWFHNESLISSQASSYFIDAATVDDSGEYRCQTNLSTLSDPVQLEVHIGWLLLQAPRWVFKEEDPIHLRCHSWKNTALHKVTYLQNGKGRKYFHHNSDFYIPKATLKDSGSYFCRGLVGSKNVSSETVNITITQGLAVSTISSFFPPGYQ

B1: M103205H795-MY051/M103202L889-SK1 (antibody, human IgG1, kappa, name in EU numbering)
heavy: QVTLKESGPVLVKPTETLTLTCTVSGIDLSHDDISWVRQAPGKGLEWVGIISYAGSTYYASWAKGRLTISKDTSKNQVVLTMTNMDPVDTATYYCARGVPAYSHGGDLWGQGTLVTVSSASTKGPSVFPLAPSSKSTSGGTAALGCLVKDYFPEPVTVSWNSGALTSGVHTFPAVLQSSGLYSLSSVVTVPSSSLGTQTYICNVNHKPSNTKVDKKVEPKSCDKTHTCPPCPAPELLNGPSVFLFPPKPKDTLMISRTPEVTCVVVDVSEEDGEVKFNWYVDGVEVHNAKTKPREEQYNSTYRVVSVLTVLHQDWLNGKEYKCKVSNKALPAPIEKTISKAKGQPREPQVYTLPPSREEMTKNQVSLTCLVKGFYPSDIAVEWESNGQPENNYKTTPPVLDSDGSFFLYSKLTVDKSRWQQGNVFSCSVMHEALHNHYTQKSLSLSP
light: DIVMTQSPATLSLSPGERATLSCTSSQSVYHANWLSWFQQKPGQPPKLLIYWASTLAYGVPSRFSGSGSGTDFTLTISSLQPEDAATYYCAGGYGGGRYAFGQGTKVEIKRTVAAPSVFIFPPSDEQLKSGTASVVCLLNNFYPREAKVQWKVDNALQSGNSQESVTEQDSKDSTYSLSSTLTLSKADYEKHKVYACEVTHQGLSSPVTKSFNRGEC
notes: Fc variant of MS1032LO06-SG1; positions in EU numbering
Kd [1]: 2200 nM
Kd [2]: 2100 nM
Kd [3]: 7400 nM
KD fold (SG1 = 1) [4]: 0.17 fold

B3: M103205H795-MY184/M103202L889-SK1 (antibody, human IgG1, kappa, name in EU numbering)
heavy: QVTLKESGPVLVKPTETLTLTCTVSGIDLSHDDISWVRQAPGKGLEWVGIISYAGSTYYASWAKGRLTISKDTSKNQVVLTMTNMDPVDTATYYCARGVPAYSHGGDLWGQGTLVTVSSASTKGPSVFPLAPSSKSTSGGTAALGCLVKDYFPEPVTVSWNSGALTSGVHTFPAVLQSSGLYSLSSVVTVPSSSLGTQTYICNVNHKPSNTKVDKKVEPKSCDKTHTCPPCPAPELLNGPSVFLFPPKPKDTLMISRTPEVTCVVVDVSEEDPEVKFNWYVDGVEVHNAKTKPREEQYNSTYRVVSVLTVLHQDWLNGKEYKCKVSNKALPAPIEKTISKAKGQPREPQVYTLPPSREEMTKNQVSLTCLVKGFYPSDIAVEWESNGQPENNYKTTPYVLDSDGSFFLYSKLTVDKSRWQQGNVFSCSVMHEALHNHYTQKSLSLSP
light: DIVMTQSPATLSLSPGERATLSCTSSQSVYHANWLSWFQQKPGQPPKLLIYWASTLAYGVPSRFSGSGSGTDFTLTISSLQPEDAATYYCAGGYGGGRYAFGQGTKVEIKRTVAAPSVFIFPPSDEQLKSGTASVVCLLNNFYPREAKVQWKVDNALQSGNSQESVTEQDSKDSTYSLSSTLTLSKADYEKHKVYACEVTHQGLSSPVTKSFNRGEC
notes: EU numbering
KD fold (SG1 = 1) [6]: 4.7 fold
KD fold (SG1 = 1) [7]: 2.8 fold
KD fold (SG1 = 1) [8]: 0.11 fold
Kd [8]: 3300 nM
Kd [9]: 900 nM

B4: M103205H795-MY211/M103202L889-SK1 (antibody, human IgG1, kappa, name in EU numbering)
heavy: QVTLKESGPVLVKPTETLTLTCTVSGIDLSHDDISWVRQAPGKGLEWVGIISYAGSTYYASWAKGRLTISKDTSKNQVVLTMTNMDPVDTATYYCARGVPAYSHGGDLWGQGTLVTVSSASTKGPSVFPLAPSSKSTSGGTAALGCLVKDYFPEPVTVSWNSGALTSGVHTFPAVLQSSGLYSLSSVVTVPSSSLGTQTYICNVNHKPSNTKVDKKVEPKSCDKTHTCPPCPAPELLNGPVVFLFPPKPKDTLMISRTPEVTCVVVDVSDEDPEVKFNWYVDGVEVHNAKTKPREEQYNSTYRVVSVLTVLHQDWLNGKEYKCKVSNTALPKPIEKTISKAKGQPREPQVYTLPPSREEMTKNQVSLTCLVKGFYPSDIAVEWESNGQPENNYKTTPPVLDSDGSFFLYSKLTVDKSRWQQGNVFSCSVMHEALHNHYTQKSLSLSP
light: DIVMTQSPATLSLSPGERATLSCTSSQSVYHANWLSWFQQKPGQPPKLLIYWASTLAYGVPSRFSGSGSGTDFTLTISSLQPEDAATYYCAGGYGGGRYAFGQGTKVEIKRTVAAPSVFIFPPSDEQLKSGTASVVCLLNNFYPREAKVQWKVDNALQSGNSQESVTEQDSKDSTYSLSSTLTLSKADYEKHKVYACEVTHQGLSSPVTKSFNRGEC
notes: substitutions in EU numbering, introduced into M103205H795-SG1
KD fold (SG1 = 1) [7]: 8.8 fold
KD fold (SG1 = 1) [10]: 6.5 fold
KD fold (SG1 = 1) [8]: 0.17 fold

Next, values leading:

KD fold (SG1 = 1) [5]: 0.2 fold
B2: M103205H795-MY451/M103202L889-SK1 (antibody, human IgG1, kappa, name in EU numbering)
heavy: QVTLKESGPVLVKPTETLTLTCTVSGIDLSHDDISWVRQAPGKGLEWVGIISYAGSTYYASWAKGRLTISKDTSKNQVVLTMTNMDPVDTATYYCARGVPAYSHGGDLWGQGTLVTVSSASTKGPSVFPLAPSSKSTSGGTAALGCLVKDYFPEPVTVSWNSGALTSGVHTFPAVLQSSGLYSLSSVVTVPSSSLGTQTYICNVNHKPSNTKVDKKVEPKSCDKTHTCPPCPANELLTGPSVFLFPPKPKDTLMISRTPEVTCVVVDVSDEDPEVKFNWYVDGVEVHNAKTKPREEQYNSTYRVVSVLTVLHQDWLNGKEYKCKVSNKALPKPIEKTISKAKGQPREPQVYTLPPSREEMTKNQVSLTCLVKGFYPSDIAVEWESNGQPENNYKTTPPVLDSDGSFFLYSKLTVDKSRWQQGNVFSCSVMHEALHNHYTQKSLSLSP
light: DIVMTQSPATLSLSPGERATLSCTSSQSVYHANWLSWFQQKPGQPPKLLIYWASTLAYGVPSRFSGSGSGTDFTLTISSLQPEDAATYYCAGGYGGGRYAFGQGTKVEIKRTVAAPSVFIFPPSDEQLKSGTASVVCLLNNFYPREAKVQWKVDNALQSGNSQESVTEQDSKDSTYSLSSTLTLSKADYEKHKVYACEVTHQGLSSPVTKSFNRGEC

KD fold (SG1 = 1) [5]: 0.3 fold
B5: M103205H795-MY447/M103202L889-SK1 (antibody, human IgG1, kappa, name in EU numbering)
heavy: QVTLKESGPVLVKPTETLTLTCTVSGIDLSHDDISWVRQAPGKGLEWVGIISYAGSTYYASWAKGRLTISKDTSKNQVVLTMTNMDPVDTATYYCARGVPAYSHGGDLWGQGTLVTVSSASTKGPSVFPLAPSSKSTSGGTAALGCLVKDYFPEPVTVSWNSGALTSGVHTFPAVLQSSGLYSLSSVVTVPSSSLGTQTYICNVNHKPSNTKVDKKVEPKSCDKTHTCPPCPAIELLTGPSVFLFPPKPKDTLMISRTPEVTCVVVDVSDEDPEVKFNWYVDGVEVHNAKTKPREEQYNSTYRVVSVLTVLHQDWLNGKEYKCKVSNKALPKPIEKTISKAKGQPREPQVYTLPPSREEMTKNQVSLTCLVKGFYPSDIAVEWESNGQPENNYKTTPPVLDSDGSFFLYSKLTVDKSRWQQGNVFSCSVMHEALHNHYTQKSLSLSP
light: DIVMTQSPATLSLSPGERATLSCTSSQSVYHANWLSWFQQKPGQPPKLLIYWASTLAYGVPSRFSGSGSGTDFTLTISSLQPEDAATYYCAGGYGGGRYAFGQGTKVEIKRTVAAPSVFIFPPSDEQLKSGTASVVCLLNNFYPREAKVQWKVDNALQSGNSQESVTEQDSKDSTYSLSSTLTLSKADYEKHKVYACEVTHQGLSSPVTKSFNRGEC
